According to patent EP4725956A1, “MODIFIED POLYPEPTIDE AND USE THEREOF IN FIELD OF ANALGESIA” (Nanjing Anji Biotechnology Co., Ltd., priority 2023, dated 2024):
Positions of bridges follow the written chain, without caps; N, C: chain ends. Non-standard residues stand in square brackets, D forms with d. Residues, ends and D or L forms follow the SMILES beside them. No end group written: not given here. Bip = N[C@@H](Cc1ccc(-c2ccccc2)cc1)C(=O)O; Hyp = O=C(O)[C@@H]1C[C@@H](O)CN1; Nle = CCCC[C@H](N)C(=O)O; Orn = NCCC[C@H](N)C(=O)O; Aib = CC(C)(N)C(=O)O

Key:
[1] = In vitro plasma stability and predicted half-life (HPLC main peak area, Example 3); format: in vitro ADME; conditions: human plasma (EDTA anticoagulant), 37°C, sampled up to 24 h, predicted half-life calculated with Winolin
Procedure: The modified peptides in this study were designed with non-natural amino acid substitutions at certain non-essential positions to enhance peptide stability and improve druggability. Peptides were dissolved in deionized water to 2 mg/mL, then diluted with acetonitrile to 1 mg/mL and filtered through an organic membrane. 200 µL of the filtrate was transferred to an LC vial as the peptide control. 300 µL of human plasma (comprising EDTA as anticoagulant, Nanjing Senbeijia Biotechnology Co., Ltd., Lot No. SBJ-P-HU011-100 mL) was mixed with 300 µL acetonitrile, centrifuged at 4°C and 12,000 rpm for 5 minutes. The supernatant was filtered through an organic membrane, and 200 µL of the filtrate was transferred to an LC vial as the plasma blank control. For peptide samples, 10 mg of peptide was weighed mixed with 5 mL of human plasma and vortexed thoroughly. 300 µL of peptide-containing plasma was mixed with 300 µL acetonitrile, centrifuged at 4°C and 12,000 rpm for 5 minutes, and the supernatant was filtered through an organic membrane. 200 µL of the filtrate was transferred to an LC vial as the 0 min sample. Peptide-containing plasma was incubated in a 37°C water bath, and samples at other time points were collected using the same procedure as the 0 min sample. For peptides AJ003 and AJ003-1, the sampling time points were 0 min, 5 min, 10 min, 20 min, 30 min, 1 h, 2 h, 4 h, 6 h, 10 h, 12 h, and 24 h. For modified peptides AJ003-34, AJ003-35, AJ003-36, AJ003-37, AJ003-38, AJ003-39, AJ003-40, AJ003-41, and AJ003-42, the time points were 0 min, 10 min, 30 min, 1 h, 4 h, 6 h, 10 h, 12 h, and 24 h. All peptide sample series were analyzed by HPLC, recording the changes in main peak areas over plasma incubation time. Predicted in vitro half-lives were calculated using the pharmacokinetic software Winolin. Due to the presence of tautomers, AJ003 peak areas were difficult to integrate accurately over time. AJ003-1 is an analog of AJ003 in which the threonine at position 5 is substituted with D-threonine; its sequence differs from AJ003 by only one amino acid configuration. […] The in vitro plasma half-lives of modified peptides AJ003-34, AJ003-35, AJ003-36, AJ003-37, AJ003-38, AJ003-39, AJ003-40, AJ003-41, and AJ003-42 were 61.9 h, 45.3 h, 65.3 h, 71.0 h, 26.7 h, 43.0 h, 84.0 h, 30.0 h, and 61.4 h, respectively.

[2] = tested on: rat paclitaxel-induced chronic chemotherapy pain model; assay: Rat paclitaxel chemotherapy pain model, same dose (Example 5); format: in vivo; conditions: 1 mg/kg s.c.
Procedure: Male SPF (Specific Pathogen Free) SD rats weighing 180-200 g (Shanghai Institute of Planned Parenthood Research, Experimental Animal Department) were used. On the day of model induction, rats were weighed, and baseline mechanical pain thresholds were measured. Animals with large differences in body weight or pain threshold were excluded, and the remaining rats were subjected to the experimental protocol. Paclitaxel powder was dissolved in olive oil to 1 mg/mL. Each rat received an intraperitoneal injection of 2 mg/kg per dose. Four injections were administered on days 1, 3, 5, and 7. Rats in the negative control or vehicle control group received injections of the solvent used to dissolve paclitaxel. […] The blank group in Table 4 represents rats without pain modeling, and the model group represents rats with pain modeling but no drug treatment. On days 1, 3, 5, and 12, drugs were administered at fixed times. On days 1, 3, and 5, mechanical pain thresholds of the right hind paw at the corresponding time were measured at 1 h, 2.5 h, 4 h, and 5.5 h after dosing using a blunt probe. On day 12, mechanical pain thresholds were measured at 4 h and 7 h after dosing. […] AJ003-36 and AJ003-40 were thus identified as candidate molecules for further study. Paclitaxel is a widely used small-molecule chemotherapy drug that, while effective against tumors, can induce neuropathic pain in many cancer patients due to neurotoxicity. The chronic chemotherapy pain model induced in male SD rats via multiple low-dose intraperitoneal injections of paclitaxel simulates clinical chemotherapy-induced neuropathic pain. Using this model, the analgesic effects of five modified peptides, the parent peptide AJ003, and the positive control pregabalin were evaluated. […] Table 4 Dosing Scheme for Screening Analgesic Activity of Selected Modified Peptides at the Same Dose in the Paclitaxel Chemotherapy Pain Model

[3] = target: α7 nAChR (Homo sapiens, UniProt P36544); assay: BLI (biolayer interferometry) affinity of peptides to α7 nAChR; format: binding; set-up: inferred from the 'similar' procedure on NTA sensors; conditions: NTA sensor, α7 nAChR 20 µg/mL, peptide 1.372-1000 nM in PBS
Excerpt: BLI is a label-free technology that converts optical interference signals occurring on the surface of BLI biosensors into real-time response signals. By monitoring the molecular binding process in real time, the system determines association rate constants (ka or kon), dissociation rate constants (kd or koff), and initial binding rates, and calculates affinity (KD) by fitting analysis. Here are the specific procedures: NTA sensors (Sartorius) were placed in a pre-wetting tray, which was then positioned in a black 96-well plate with 200 µL PBS per well. The NTA sensors were pre-wetted for at least 15 minutes. The target protein α9 nAChR was diluted in PBS to 5 µg/mL, with 200 µL added per well. Test peptides were dissolved in PBS and serially diluted threefold, with concentrations from high to low as 1000 nM, 333.3 nM, 111.1 nM, 37.04 nM, 12.35 nM, 4.115 nM, and 1.372 nM, with an additional well with PBS only as a zeroconcentration control. After equilibrating the instrument baseline, the NTA sensor was used to immobilize the target protein α9 nAChR. Once immobilization was complete, the baseline was re-equilibrated, followed by a 5-minute association and a 5-minute dissociation phase. Affinity measurements of the test peptides were conducted sequentially using the above procedure. The procedure for measuring peptide affinity to α7 nAChR was similar, except that the α7 nAChR concentration was 20 µg/mL. Tables 2 and 3 show the BLI-determined affinities of alanine-scan peptide analogs with target proteins, which identified sites on the parent peptide suitable for modification. Subsequently, single-site non-natural amino acid substituted peptides were evaluated by BLI for target protein affinity. Finally, multi-site combinatorial modified peptides were measured for affinity by BLI, leading to the selection of high-affinity peptides for further screen and drug development potential. Table 2 Test Results for Affinity of Modified Peptides to α9 nAChR

[4] = target: T1, α9 nAChR (human, UniProt Q9UGM1 23-238); assay: BLI, α9 nAChR captured on NTA sensor, peptide 1.372-1000 nM in solution
T1 construct: also called target protein α9 nAChR; α9 nicotinic acetylcholine receptor
T1 sequence (Q9UGM1 23-238 limits assumed): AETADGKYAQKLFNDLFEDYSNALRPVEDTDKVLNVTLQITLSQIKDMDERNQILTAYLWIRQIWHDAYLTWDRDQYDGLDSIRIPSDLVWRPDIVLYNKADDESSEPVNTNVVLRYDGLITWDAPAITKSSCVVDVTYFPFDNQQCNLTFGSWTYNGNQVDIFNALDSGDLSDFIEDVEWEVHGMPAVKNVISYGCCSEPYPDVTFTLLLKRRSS

[5] = target: T2, α7 nAChR (human, UniProt P36544 23-233); assay: BLI, α7 nAChR captured on NTA sensor, peptide in solution
T2 construct: also called target protein α7 nAChR; α7 nicotinic acetylcholine receptor
T2 sequence (P36544 23-233 limits assumed): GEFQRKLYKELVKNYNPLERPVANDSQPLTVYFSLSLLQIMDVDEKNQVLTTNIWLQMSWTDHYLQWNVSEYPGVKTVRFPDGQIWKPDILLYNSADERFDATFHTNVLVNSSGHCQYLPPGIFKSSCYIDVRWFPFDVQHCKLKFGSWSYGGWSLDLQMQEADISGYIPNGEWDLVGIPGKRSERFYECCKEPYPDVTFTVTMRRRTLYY

**Q.** Which results are given for CCCC[C@H](NC(=O)[C@@H](NC(=O)[C@H]1CSSC[C@H](NC(=O)[C@H](CO)NC(=O)CN)C(=O)N[C@@H](CO)C(=O)N[C@H]([C@H](C)O)C(=O)N2C[C@H](O)C[C@H]2C(=O)N2C[C@H](O)C[C@H]2C(=O)N[C@@H](CO)C(=O)N1)C(C)C)C(=O)N[C@@H](Cc1ccc(-c2ccccc2)cc1)C(=O)N[C@@H](CCCN)C(N)=O [AJ003-34, GSCS-(D-Thr)-Hyp-Hyp-S-(D-Cys)-V-Nle-Bip-Orn-NH2 (3,9 disulfide bond)] (H-GSCS[dT][Hyp][Hyp]S[dC]V[Nle][Bip][Orn]-NH2; disulfide 3-9)?
**A.** half-life at 2 mg/mL [1]: 2.58 days; ranking among the five candidate modified peptides [2]: top three analgesic candidates; Kd [3]: 360 nM

**Q.** Which half-life at 2 mg/mL [1] does the source give for CCCC[C@H](NC(=O)[C@@H](NC(=O)[C@H]1CSSC[C@H](NC(=O)[C@H](CO)NC(=O)CN)C(=O)N[C@@H](CO)C(=O)N[C@H]([C@H](C)O)C(=O)N2C[C@H](O)C[C@H]2C(=O)N2C[C@H](O)C[C@H]2C(=O)NC(C)(C)C(=O)N1)C(C)C)C(=O)N[C@@H](Cc1ccccc1)C(=O)N[C@@H](CCCN)C(N)=O [AJ003-39, GSCS-(D-Thr)-Hyp-Hyp-Aib-(D-Cys)-V-Nle-F-Orn-NH2 (3,9 disulfide bond)] (H-GSCS[dT][Hyp][Hyp][Aib][dC]V[Nle]F[Orn]-NH2; disulfide 3-9) here?
**A.** 1.79 days

**Q.** And the Kd [3]?
**A.** 410 nM

**Q.** With CCCC[C@H](NC(=O)[C@@H](NC(=O)[C@H]1CSSC[C@H](NC(=O)[C@H](CO)NC(=O)CN)C(=O)N[C@@H](CO)C(=O)N[C@H]([C@H](C)O)C(=O)N2C[C@H](O)C[C@H]2C(=O)N2C[C@H](O)C[C@H]2C(=O)N[C@@H](C)C(=O)N1)C(C)C)C(=O)N[C@@H](Cc1c[nH]c2ccccc12)C(=O)N[C@@H](CCCN)C(N)=O [AJ003-41, GSCS-(D-Thr)-Hyp-Hyp-A-(D-Cys)-V-Nle-W-Orn-NH2 (3,9 disulfide bond)] (H-GSCS[dT][Hyp][Hyp]A[dC]V[Nle]W[Orn]-NH2; disulfide 3-9) as the molecule, how does the half-life at 2 mg/mL [1] read?
**A.** 1.25 days

**Q.** What about the Kd [3] of the same molecule?
**A.** 110 nM

**Q.** What does the source list for CCCC[C@H](NC(=O)[C@@H](NC(=O)[C@H]1CSSC[C@H](NC(=O)[C@H](CO)NC(=O)CN)C(=O)N[C@@H](CO)C(=O)N[C@H]([C@H](C)O)C(=O)N2C[C@H](O)C[C@H]2C(=O)N2C[C@H](O)C[C@H]2C(=O)NC(C)(C)C(=O)N1)C(C)C)C(=O)N[C@@H](Cc1c[nH]c2ccccc12)C(=O)N[C@@H](CCCN)C(N)=O [AJ003-42, GSCS-(D-Thr)-Hyp-Hyp-Aib-(D-Cys)-V-Nle-W-Orn-NH2 (3,9 disulfide bond)] (H-GSCS[dT][Hyp][Hyp][Aib][dC]V[Nle]W[Orn]-NH2; disulfide 3-9)?
**A.** half-life at 2 mg/mL [1]: 2.56 days; Kd [3]: 21.2 nM

B1: AJ003-20 (peptide)
peptide: GSCS[dT]PPS[dC]VAYS
modifications: disulfide 3-9
notes: Printed: GSCS-(D-Thr)-PPS-(D-Cys)-VAYS (3,9 disulfide bond)
**Q.** Which Kd [4] does the source give for B1 here?
**A.** 16.3 nM

B2: AJ003-21 (peptide)
peptide: GSCS[dT]PPS[dC]VLAS
modifications: disulfide 3-9
notes: Printed: GSCS-(D-Thr)-PPS-(D-Cys)-VLAS (3,9 disulfide bond)
**Q.** For B2, which Kd [4] is on record?
**A.** 514 nM

B3: AJ003-22 (peptide)
peptide: GSCS[dT]PPS[dC]VLYA
modifications: disulfide 3-9
notes: Printed: GSCS-(D-Thr)-PPS-(D-Cys)-VLYA (3,9 disulfide bond)
**Q.** For B3, which Kd [4] is on record?
**A.** 163 nM

B4: AJ003-1 (peptide)
peptide: GSCS[dT]PPS[dC]VLYS
modifications: disulfide 3-9
notes: Printed: GSCS-(D-Thr)-PPS-(D-Cys)-VLYS (3,9 disulfide bond)
**Q.** For B4, which Kd [5] is on record?
**A.** 22 nM

**Q.** And the Kd [4]?
**A.** 86 nM

B5: AJ003-24 (peptide)
peptide: GSCS[dT]PPG[dC]VLYS
modifications: disulfide 3-9
notes: Printed: GSCS-(D-Thr)-PPG-(D-Cys)-VLYS (3,9 disulfide bond)
**Q.** For B5, which Kd [5] is on record?
**A.** 14000 nM

B6: AJ003-26 (peptide)
peptide: GSCS[dT]PPS[dC]GLYS
modifications: disulfide 3-9
notes: Printed: GSCS-(D-Thr)-PPS-(D-Cys)-GLYS (3,9 disulfide bond)
**Q.** Which Kd [5] does the source give for B6 here?
**A.** 6830 nM

B7: AJ003-27 (peptide)
peptide: GSCS[dT]PPS[dC]VIYS
modifications: disulfide 3-9
notes: Printed: GSCS-(D-Thr)-PPS-(D-Cys)-VIYS (3,9 disulfide bond)
**Q.** Which Kd [5] does the source give for B7 here?
**A.** 323 nM

B8: AJ003-30 (peptide)
peptide: GSCS[dT]PPS[dC]VLWS
modifications: disulfide 3-9
notes: Printed: GSCS-(D-Thr)-PPS-(D-Cys)-VLWS (3,9 disulfide bond)
**Q.** For B8, which Kd [5] is on record?
**A.** 27.8 nM

B9: AJ003-12 (peptide)
peptide: ASCS[dT]PPS[dC]VLYS
modifications: disulfide 3-9
notes: Printed: ASCS-(D-Thr)-PPS-(D-Cys)-VLYS (3,9 disulfide bond)
**Q.** For B9, which Kd [4] is on record?
**A.** 31600 nM

B10: AJ003-13 (peptide)
peptide: GACS[dT]PPS[dC]VLYS
modifications: disulfide 3-9
notes: Printed: GACS-(D-Thr)-PPS-(D-Cys)-VLYS (3,9 disulfide bond)
**Q.** For B10, which Kd [4] is on record?
**A.** 6690 nM

B11: AJ003-14 (peptide)
peptide: GSCA[dT]PPS[dC]VLYS
modifications: disulfide 3-9
notes: Printed: GSCA-(D-Thr)-PPS-(D-Cys)-VLYS (3,9 disulfide bond)
**Q.** For B11, which Kd [4] is on record?
**A.** 13900 nM

B12: AJ003-18 (peptide)
peptide: GSCS[dT]PPA[dC]VLYS
modifications: disulfide 3-9
notes: Printed: GSCS-(D-Thr)-PPA-(D-Cys)-VLYS (3,9 disulfide bond)
**Q.** With B12 as the molecule, how does the Kd [4] read?
**A.** 42.6 nM

B13: AJ003-19 (peptide)
peptide: GSCS[dT]PPS[dC]ALYS
modifications: disulfide 3-9
notes: Printed: GSCS-(D-Thr)-PPS-(D-Cys)-ALYS (3,9 disulfide bond)
**Q.** With B13 as the molecule, how does the Kd [4] read?
**A.** 317 nM
